From publication PMC10575590, “Molecular basis of ClC-6 function and its impairment in human disease” (Science Advances, 2023)

Molecular target: the molecule itself
Assay: cryo-EM structure; purified ClC-6 in 150 mM NaCl, 0.1% digitonin, 20 mM Hepes pH 7.4; apo, with 2 mM ATP and 2 mM MgCl2, and the Y553C mutant; C2 symmetry imposed

B1: human ClC-6 (natural protein)
chain: MAGCRGSLCCCCRWCCCCGERETRTPEELTILGETQEEEDEILPRKDYESLDYDRCINDPYLEVLETMDNKKGRRYEAVKWMVVFAIGVCTGLVGLFVDFFVRLFTQLKFGVVQTSVEECSQKGCLALSLLELLGFNLTFVFLASLLVLIEPVAAGSGIPEVKCYLNGVKVPGIVRLRTLLCKVLGVLFSVAGGLFVEKEGPMIHSGSVVGAGLPQFQSISLRKIQFNFPYFRSDRDKRDFVSAGAAAGVAAAFGAPIGGTLFSLEEGSSFWNQGLTWKVLFCSMSATFTLNFFRSGIQFGSWGSFQLPGLLNFGEFKCSDSDKKCHLWTAMDLGFFVVMGVIGGLLGATFNCLNKRLAKYRMRNVHPKPKLVRVLESLLVSLVTTVVVFVASMVLGECRQMSSSSQIGNDSFQLQVTEDVNSSIKTFFCPNDTYNDMATLFFNPQESAILQLFHQDGTFSPVTLALFFVLYFLLACWTYGISVPSGLFVPSLLCGAAFGRLVANVLKSYIGLGHIYSGTFALIGAAAFLGGVVRMTISLTVILIESTNEITYGLPIMVTLMVAKWTGDFFNKGIYDIHVGLRGVPLLEWETEVEMDKLRASDIMEPNLTYVYPHTRIQSLVSILRTTVHHAFPVVTENRGNEKEFMKGNQLISNNIKFKKSSILTRAGEQRKRSQSMKSYPSSELRNMCDEHIASEEPAEKEDLLQQMLERRYTPYPNLYPDQSPSEDWTMEERFRPLTFHGLILRSQLVTLLVRGVCYSESQSSASQPRLSYAEMAEDYPRYPDIHDLDLTLLNPRMIVDVTPYMNPSPFTVSPNTHVSQVFNLFRTMGLRHLPVVNAVGEIVGIITRHNLTYEFLQARLRQHYQTI
notes: ClC-6 (chloride-proton exchanger), human; cDNA in the pEG BacMam vector; residues up to H851 are seen in the structure, so the whole protein is likely; also called WT ClC-6; apo-ClC-6; source: HEK293F cells, BacMam virus, purified (Strep-Tactin Sepharose, size exclusion chromatography) in digitonin
- stoichiometry N: 2

B2: ClC-6 mutant (Y553C) (natural protein, human)
chain: MAGCRGSLCCCCRWCCCCGERETRTPEELTILGETQEEEDEILPRKDYESLDYDRCINDPYLEVLETMDNKKGRRYEAVKWMVVFAIGVCTGLVGLFVDFFVRLFTQLKFGVVQTSVEECSQKGCLALSLLELLGFNLTFVFLASLLVLIEPVAAGSGIPEVKCYLNGVKVPGIVRLRTLLCKVLGVLFSVAGGLFVEKEGPMIHSGSVVGAGLPQFQSISLRKIQFNFPYFRSDRDKRDFVSAGAAAGVAAAFGAPIGGTLFSLEEGSSFWNQGLTWKVLFCSMSATFTLNFFRSGIQFGSWGSFQLPGLLNFGEFKCSDSDKKCHLWTAMDLGFFVVMGVIGGLLGATFNCLNKRLAKYRMRNVHPKPKLVRVLESLLVSLVTTVVVFVASMVLGECRQMSSSSQIGNDSFQLQVTEDVNSSIKTFFCPNDTYNDMATLFFNPQESAILQLFHQDGTFSPVTLALFFVLYFLLACWTYGISVPSGLFVPSLLCGAAFGRLVANVLKSYIGLGHIYSGTFALIGAAAFLGGVVRMTISLTVILIESTNEITCGLPIMVTLMVAKWTGDFFNKGIYDIHVGLRGVPLLEWETEVEMDKLRASDIMEPNLTYVYPHTRIQSLVSILRTTVHHAFPVVTENRGNEKEFMKGNQLISNNIKFKKSSILTRAGEQRKRSQSMKSYPSSELRNMCDEHIASEEPAEKEDLLQQMLERRYTPYPNLYPDQSPSEDWTMEERFRPLTFHGLILRSQLVTLLVRGVCYSESQSSASQPRLSYAEMAEDYPRYPDIHDLDLTLLNPRMIVDVTPYMNPSPFTVSPNTHVSQVFNLFRTMGLRHLPVVNAVGEIVGIITRHNLTYEFLQARLRQHYQTI
notes: ClC-6, human, with the disease-causing patient variant p.Y553C; made as apo-ClC-6; Variant found in patients (heterozygous p.Y553C), so the origin is written as natural; also called Y553C mutant; p.Y553C; source: HEK293F cells, BacMam virus, purified (Strep-Tactin Sepharose, size exclusion chromatography) in digitonin
- binding result: binds
